Sequences and labels used below:
B1: h_Nb2 VHH (VHH)
VHH: DVQLQESGGGLVQPGGSLRLSCAASGFTFGDRWMYWLRQAPGKGLEWVSSINPAGRSTYYADSVKGRFTISRDNAKNTLYLQMNSLKSEDTAVYYCTKDPGGYQKGQGTQVTVSS
B2: h_Nb5 VHH (VHH)
VHH: DVQLQESGGGAVQSGESLRLSCAASGRDLMFYDVAWFRQAPGKEREGVSYIRSSGTLTKYADSVKGRFTISRDNDKNTVSLQMNSLNPEDTAKYYCAARLQSATSHSDLREDEFNSWGQGTQVTVSS
B3: h_Nb13 VHH (VHH)
VHH: DVQLQESGGGLVQPGGSLRLSCAASGSIFSINAMGWYRQAPGKSRELVAAITSGGSTNYADSVKGRFTISRDTAKNTVYLLMNSLEPEDTAVYYCNVERRRPPHYLSEYDFDWGQGTQVTVSS
B4: h_Nb26 VHH (VHH)
VHH: B3 VHH with S25P, S30R, S44Q, K64Q, T73N, L81Q, E86K, L106Y, E108D
B5: h_Nb30 VHH (VHH)
VHH: DVQLQESGGGLVQPGESLRVSCAASGFTFSNYYMTWVRQAPGKGLEWVSFLNPSSSERFYADSVKGRFTISRDNAKNTLDLLMHSLKPEDTALYYCARHLKYNWAPNYDYWGQGTQVTVSS
B6: h_Nb4 VHH (VHH)
VHH: DVQLQESGGGLVQAGGSLRLSCAAPSRMFSGYTMGWYRQAPGKQRELVAQIANGGFTDYIDSVKGRFSISRDTVLNMMYLQMNSLKPEDTAVYYCNLVLVNGIPTRNWGQGTQVTVSS
B7: h_Nb1 VHH (VHH)
VHH: DVQLQESGGGLVQPGGSLRLSCAASGFTFSSYAMSWVRQAPGKGLEWVSDINSGGDNTDYADSVKGRFTISRDNAKNTLYLQMNSLKPEDTAVYYCARGPKLCFSSWGQGTQVTVSS
B8: h_Nb2_P100R (VHH)
VHH: B1 VHH with P100R
notes: also called 95
B9: h_Nb2_G30R (VHH)
VHH: B1 VHH with G30R
notes: also called 87
B10: h_Nb2_P100E (VHH)
VHH: B1 VHH with P100E
notes: also called 97
B11: h_Nb2_P100Q (VHH)
VHH: B1 VHH with P100Q
notes: also called 96
B12: h_Nb2_G101R (VHH)
VHH: B1 VHH with G101R
notes: also called 90
B13: h_Nb2_F29W (VHH)
VHH: B1 VHH with F29W
notes: also called 94
B14: h_Nb2_G101W (VHH)
VHH: B1 VHH with G101W
notes: also called 91
B15: h_Nb2_F29R (VHH)
VHH: B1 VHH with F29R
notes: also called 93
B16: h_Nb2_G30F (VHH)
VHH: B1 VHH with G30F
notes: also called 88
B17: h_Nb2_G30W (VHH)
VHH: B1 VHH with G30W
notes: also called 89
B18: h_Nb2_G101Y (VHH)
VHH: B1 VHH with G101Y
notes: also called 92
B19: h_Nb1_G99Q (VHH)
VHH: B7 VHH with G99Q
notes: also called 84
B20: h_Nb1_C103K (VHH)
VHH: B7 VHH with C103K
notes: also called 80
B21: h_Nb1_D59F (VHH)
VHH: B7 VHH with D59F
notes: also called 77
B22: h_Nb1_D59R (VHH)
VHH: B7 VHH with D59R
notes: also called 75
B23: h_Nb1_G99Y (VHH)
VHH: B7 VHH with G99Y
notes: also called 86
B24: h_Nb1_D59M (VHH)
VHH: B7 VHH with D59M
notes: also called 76
B25: h_Nb1_G99W (VHH)
VHH: B7 VHH with G99W
notes: also called 85
B26: h_Nb1_G99R (VHH)
VHH: B7 VHH with G99R
notes: also called 83
B27: h_Nb1_C103M (VHH)
VHH: B7 VHH with C103M
notes: also called 81
B28: h_Nb1_A61Q (VHH)
VHH: B7 VHH with A61Q
notes: also called 73
B29: h_Nb1_A61N (VHH)
VHH: B7 VHH with A61N
notes: also called 72
B30: h_Nb1_C103W (VHH)
VHH: B7 VHH with C103W
notes: also called 82
B31: h_Nb1_A61K (VHH)
VHH: B7 VHH with A61K
notes: also called 74
B32: h_Nb1_D62Y (VHH)
VHH: B7 VHH with D62Y
notes: also called 79
B33: h_Nb1_D62W (VHH)
VHH: B7 VHH with D62W
notes: also called 78

Positions count from the first letter of the chain named.

T1 sequence (Q9NZQ7 19-238 limits assumed): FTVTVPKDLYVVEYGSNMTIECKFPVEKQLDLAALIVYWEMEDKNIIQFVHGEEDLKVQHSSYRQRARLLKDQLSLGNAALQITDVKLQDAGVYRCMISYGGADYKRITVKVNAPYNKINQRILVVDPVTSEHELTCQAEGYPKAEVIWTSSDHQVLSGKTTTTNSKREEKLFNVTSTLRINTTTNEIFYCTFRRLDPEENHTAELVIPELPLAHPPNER

The first assay has as its target T1, human PD-L1 protein (ELISA antigen) (human, UniProt Q9NZQ7 19-238, limits assumed).
T1 construct: also called PD-L1-biotin protein
The experiment in a line: ELISA; PD-L1 protein on NeutrAvidin plate, crude nanobody, anti-HA detection; positive = absorbance more than three times control. The method, then: After several rounds of panning, TG1 competent cells in the logarithmic phase of growth were infected with the eluted phages, gradiently diluted and spread on the plate for overnight culture. 96 clones were picked and inoculated into a 96-well round-bottom plate with 100 μL of culture medium per well and left to be incubated overnight as the master plate. Then 10 μL of overnight cultured bacterial solution was pipetted into a 96-well deep-bottom plate with 1 mL of culture medium per well to induce nanobody expression which was then subjected to crude purification. The 96-well ELISA plate was coated with 5 μg/mL NeutrAvidin solution at 4° C., 700 rpm, overnight. The next day, 2% skim milk powder was added to block the plate at room temperature and washed 3 times with a solution containing bovine serum albumin BSA. 100 μL 3 μg/mL PD-L1 protein was added and incubated at room temperature for 30 minutes, then washed. The crudely extracted nanobody was added and incubated at room temperature for 1 h followed by washing. Mouse anti-HA primary antibody was added and the mixture was incubated at room temperature for 1 hour followed by washing. Goat anti-mouse alkaline phosphatase-labeled secondary antibody was added and the mixture was incubated at room temperature for 1 hour followed by washing. Alkaline phosphatase colorimetric solution was added for 10 minutes, and the absorption value was detected at 405 nm on a microplate reader. A well with an absorption value that is more than three times the absorption value of the control group is preliminarily determined as a positive well. The positive clones were transferred to a shaking tube for culture in order to extract the plasmid and then subjected to sequencing. Finally, 11 candidate positive clones were obtained.
In general terms: An ELISA detects its analyte on a solid surface through an enzyme-linked reagent.
B1: the binding result is recorded as “binds”.
Still for that read-out and setting: the entry for B2 is “binds”; for B3 it is “binds”.
The same measure, in the same setting: the entry for B4 is “binds”; for B5 it is “binds”; for B6 it is “binds”.
On the same count and under the same terms, the entry for B7 is “binds”.

The target in a further assay is T1, human PD-L1 protein (ELISA antigen). As to the kind of experiment: relative to original antibody h_Nb2 (SEQ ID NO. 5); ELISA comparison per Example 10.
With B8, the “Improved value of relative affinity” value was found to be 7.21.
On to B9, for which the “Improved value of relative affinity” value was 6.23.
Still for that read-out and setting: the same measure for B10: 3.98; for B11: 3.41; for B12: 6.5.
Still for that read-out and setting: the figure for B13 is 1.44; for B14 it is 5.92; for B15 it is 1.46.
Take B16: the “Improved value of relative affinity” value was found to be 5.11.
As for B17, the “Improved value of relative affinity” value came to 10.
As for B18, the “Improved value of relative affinity” value came out at 8.48.

Another assay has the same target. The experiment in a line: relative to original antibody h_Nb1 (SEQ ID NO. 1); ELISA comparison per Example 10.
On to B19, for which the “Improved value of relative affinity” value came to 6.16.
Still for that read-out and setting: the same measure for B20: 3.31.
On the same count and under the same terms, the figure for B21 is 5.12; for B22 it is 4.28; for B23 it is 7.02.
Same read-out and setting: the same measure for B24: 4.9.
As for B25, the “Improved value of relative affinity” value was 6.16.
Same read-out and setting: the same measure for B26: 12.1; for B27: 3.38; for B28: 4.66.
As to B29, the “Improved value of relative affinity” value was found to be 5.13.
On the same count and under the same terms, the figure for B30 is 3.83; for B31 it is 4.12; for B32 it is 5.8.
Still for that read-out and setting: the same measure for B33: 11.7.
